According to paper doi:10.1101/2024.12.10.627806:

Key:
[1] = molecular target: head-tail joining protein (80α gp50) (Staphylococcus aureus bacteriophage 80α); assay: cryo-EM structure; focused reconstruction of the neck of purified SaPI1 virions with C6 symmetry, 3.1 Å; AlphaFold2 models fitted and refined in ISOLDE; virions in 20 mM Tris-HCl pH 7.8, 50 mM NaCl, 4 mM CaCl2, 1 mM MgSO4, treated with Benzonase
[2] = molecular target: head-to-tail connector protein (80α gp49) (Staphylococcus aureus bacteriophage 80α); assay: as above
[3] = molecular target: major tail protein (80α gp53) (Staphylococcus aureus bacteriophage 80α); assay: as above
[4] = molecular target: portal protein (80α gene product 42) (Staphylococcus aureus bacteriophage 80α); assay: as above
[5] = molecular target: tail terminator protein (80α gp52) (Staphylococcus aureus bacteriophage 80α); assay: as above
[6] = molecular target: tape measure protein (80α gp56) (Staphylococcus aureus bacteriophage 80α); assay: cryo-EM structure; asymmetric (C1) reconstruction of the neck of purified SaPI1 virions after symmetry expansion and masked classification on the tail interior, 3.4 Å (3.54 Å in the methods); AlphaFold2/AlphaFold3 models fitted

head-tail joining protein (80α gp50) (natural protein)
stoichiometry N [1]: 6

head-to-tail connector protein (80α gp49) (natural protein)
stoichiometry N [2]: 12

major tail protein (80α gp53) (natural protein)
stoichiometry N [3]: 6

portal protein (80α gene product 42) (natural protein)
stoichiometry N [4]: 12

tail terminator protein (80α gp52) (natural protein)
stoichiometry N [5]: 6

tape measure protein (80α gp56) (natural protein)
stoichiometry N [6]: 3
